Laboratory results as given in US20130315910A1 (Xencor, published 2013).
Where a chain is given by its changes, count along the chain named. Numbers in names are those of the source.

B1: P331S (antibody, human IgG1, kappa)
heavy: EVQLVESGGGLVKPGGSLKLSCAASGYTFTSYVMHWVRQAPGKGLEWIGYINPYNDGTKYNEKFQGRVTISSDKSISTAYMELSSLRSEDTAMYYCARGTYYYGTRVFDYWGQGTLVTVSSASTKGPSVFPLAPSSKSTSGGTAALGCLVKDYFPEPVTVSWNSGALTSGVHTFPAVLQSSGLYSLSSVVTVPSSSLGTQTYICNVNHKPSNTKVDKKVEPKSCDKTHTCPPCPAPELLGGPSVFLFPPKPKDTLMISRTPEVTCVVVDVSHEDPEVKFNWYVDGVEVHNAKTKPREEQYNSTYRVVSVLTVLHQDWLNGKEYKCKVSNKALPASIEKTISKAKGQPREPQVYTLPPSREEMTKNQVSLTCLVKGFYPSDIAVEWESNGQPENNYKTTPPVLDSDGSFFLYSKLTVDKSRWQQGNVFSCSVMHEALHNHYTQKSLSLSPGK
light: DIVMTQSPATLSLSPGERATLSCRSSKSLQNVNGNTYLYWFQQKPGQSPQLLIYRMSNLNSGVPDRFSGSGSGTEFTLTISSLEPEDFAVYYCMQHLEYPITFGAGTKLEIKRTVAAPSVFIFPPSDEQLKSGTASVVCLLNNFYPREAKVQWKVDNALQSGNSQESVTEQDSKDSTYSLSSTLTLSKADYEKHKVYACEVTHQGLSSPVTKSFNRGEC
notes: HuAM4G7 anti-CD19 IgG1 (m1) with this Fc substitution, EU index; copies: 2 + 2
B2: S239D/H268D/L328F (antibody, human IgG1, kappa)
heavy: EVQLVESGGGLVKPGGSLKLSCAASGYTFTSYVMHWVRQAPGKGLEWIGYINPYNDGTKYNEKFQGRVTISSDKSISTAYMELSSLRSEDTAMYYCARGTYYYGTRVFDYWGQGTLVTVSSASTKGPSVFPLAPSSKSTSGGTAALGCLVKDYFPEPVTVSWNSGALTSGVHTFPAVLQSSGLYSLSSVVTVPSSSLGTQTYICNVNHKPSNTKVDKKVEPKSCDKTHTCPPCPAPELLGGPDVFLFPPKPKDTLMISRTPEVTCVVVDVSDEDPEVKFNWYVDGVEVHNAKTKPREEQYNSTYRVVSVLTVLHQDWLNGKEYKCKVSNKAFPAPIEKTISKAKGQPREPQVYTLPPSREEMTKNQVSLTCLVKGFYPSDIAVEWESNGQPENNYKTTPPVLDSDGSFFLYSKLTVDKSRWQQGNVFSCSVMHEALHNHYTQKSLSLSPGK
light: B1 light
notes: HuAM4G7 anti-CD19 IgG1 (m1) with these Fc substitutions, EU index; copies: 2 + 2
B3: H268D/A327D/L328Y (antibody, human IgG1, kappa)
heavy: B2 heavy with D243S, A331D, F332Y
light: B1 light
notes: as for B2
B4: S298M (antibody, human IgG1, kappa)
heavy: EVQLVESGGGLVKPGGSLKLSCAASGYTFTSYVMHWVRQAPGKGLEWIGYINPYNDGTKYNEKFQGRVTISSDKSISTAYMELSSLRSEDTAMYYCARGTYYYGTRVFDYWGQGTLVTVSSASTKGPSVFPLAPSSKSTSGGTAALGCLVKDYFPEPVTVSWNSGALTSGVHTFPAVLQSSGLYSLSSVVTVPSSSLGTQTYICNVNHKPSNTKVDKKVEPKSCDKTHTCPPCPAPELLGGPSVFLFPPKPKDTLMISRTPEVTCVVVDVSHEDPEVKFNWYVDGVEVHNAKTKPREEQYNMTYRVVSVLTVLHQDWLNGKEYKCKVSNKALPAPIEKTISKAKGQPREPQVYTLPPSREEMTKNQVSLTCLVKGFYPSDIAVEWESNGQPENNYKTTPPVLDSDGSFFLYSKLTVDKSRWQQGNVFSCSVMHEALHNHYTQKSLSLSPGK
light: B1 light
notes: as for B1
B5: S239D/L328F/I332E (antibody, human IgG1, kappa)
heavy: B2 heavy with D272H, I336E
light: B1 light
notes: as for B2
B6: S239D/L328Y/I332E (antibody, human IgG1, kappa)
heavy: B2 heavy with D272H, F332Y, I336E
light: B1 light
notes: as for B2
B7: S239D/H268D/L328Y (antibody, human IgG1, kappa)
heavy: B2 heavy with F332Y
light: B1 light
notes: as for B2
B8: S239D/K326D/L328Y (antibody, human IgG1, kappa)
heavy: B2 heavy with D272H, K330D, F332Y
light: B1 light
notes: as for B2
B9: S239D/H268E/L328Y (antibody, human IgG1, kappa)
heavy: B2 heavy with D272E, F332Y
light: B1 light
notes: as for B2
B10: S239D/H268D/L328F/I332E (antibody, human IgG1, kappa)
heavy: B2 heavy with I336E
light: B1 light
notes: as for B2
B11: S239D/S267A/L328Y (antibody, human IgG1, kappa)
heavy: B2 heavy with S271A, D272H, F332Y
light: B1 light
notes: as for B2
B12: H268D/L328Y (antibody, human IgG1, kappa)
heavy: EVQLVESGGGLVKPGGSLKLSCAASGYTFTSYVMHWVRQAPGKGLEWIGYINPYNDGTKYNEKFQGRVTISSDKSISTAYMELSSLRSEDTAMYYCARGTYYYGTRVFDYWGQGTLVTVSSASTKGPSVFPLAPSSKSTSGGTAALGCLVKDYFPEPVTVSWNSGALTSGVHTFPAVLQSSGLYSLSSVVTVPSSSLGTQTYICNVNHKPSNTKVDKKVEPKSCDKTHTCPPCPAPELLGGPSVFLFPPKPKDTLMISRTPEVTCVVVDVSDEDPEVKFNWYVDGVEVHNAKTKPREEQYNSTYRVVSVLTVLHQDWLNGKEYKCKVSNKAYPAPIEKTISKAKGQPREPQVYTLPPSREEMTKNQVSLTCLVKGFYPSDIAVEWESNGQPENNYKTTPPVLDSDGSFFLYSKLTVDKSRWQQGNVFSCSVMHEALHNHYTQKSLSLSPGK
light: B1 light
notes: as for B2
B13: L234W/H268D/L328Y (antibody, human IgG1, kappa)
heavy: B2 heavy with L238W, D243S, F332Y
light: B1 light
notes: as for B2
B14: H268D/L328W/I332E (antibody, human IgG1, kappa)
heavy: B2 heavy with D243S, F332W, I336E
light: B1 light
notes: as for B2
B15: S239D/L328Y (antibody, human IgG1, kappa)
heavy: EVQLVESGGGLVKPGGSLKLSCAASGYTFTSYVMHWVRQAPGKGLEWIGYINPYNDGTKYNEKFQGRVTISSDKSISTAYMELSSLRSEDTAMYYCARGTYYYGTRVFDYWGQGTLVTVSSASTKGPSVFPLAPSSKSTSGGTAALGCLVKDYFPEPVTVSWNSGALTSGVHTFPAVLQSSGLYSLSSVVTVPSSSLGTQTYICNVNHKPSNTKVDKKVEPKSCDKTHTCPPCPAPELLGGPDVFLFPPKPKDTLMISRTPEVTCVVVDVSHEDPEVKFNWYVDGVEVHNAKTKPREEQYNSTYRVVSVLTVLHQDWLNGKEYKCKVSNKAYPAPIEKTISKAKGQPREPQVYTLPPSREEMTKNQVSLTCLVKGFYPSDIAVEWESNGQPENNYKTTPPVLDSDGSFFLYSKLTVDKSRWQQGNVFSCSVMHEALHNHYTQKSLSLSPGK
light: B1 light
notes: as for B2
B16: S239D/S267E/I332E (antibody, human IgG1, kappa)
heavy: B2 heavy with S271E, D272H, F332L, I336E
light: B1 light
notes: as for B2
B17: S239D/H268D/L328W (antibody, human IgG1, kappa)
heavy: B2 heavy with F332W
light: B1 light
notes: as for B2
B18: S239D/H268D/L328Y/I332E (antibody, human IgG1, kappa)
heavy: B2 heavy with F332Y, I336E
light: B1 light
notes: as for B2
B19: S239D/H268D/L328W/I332E (antibody, human IgG1, kappa)
heavy: B2 heavy with F332W, I336E
light: B1 light
notes: as for B2
B20: S298L (antibody, human IgG1, kappa)
heavy: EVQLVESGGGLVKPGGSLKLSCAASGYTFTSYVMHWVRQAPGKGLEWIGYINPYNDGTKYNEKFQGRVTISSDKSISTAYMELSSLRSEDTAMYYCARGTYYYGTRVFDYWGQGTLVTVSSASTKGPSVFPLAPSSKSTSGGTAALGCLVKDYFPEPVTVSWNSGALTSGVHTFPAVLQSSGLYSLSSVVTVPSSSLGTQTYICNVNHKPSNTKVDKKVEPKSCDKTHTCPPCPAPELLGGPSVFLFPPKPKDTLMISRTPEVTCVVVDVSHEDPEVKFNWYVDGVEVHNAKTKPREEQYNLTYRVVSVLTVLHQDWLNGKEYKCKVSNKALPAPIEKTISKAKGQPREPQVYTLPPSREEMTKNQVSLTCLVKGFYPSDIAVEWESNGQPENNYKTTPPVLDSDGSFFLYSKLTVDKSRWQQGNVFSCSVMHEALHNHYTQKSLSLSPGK
light: B1 light
notes: as for B1

Biological target: T1, human FcγRIIb receptor protein (R&D Systems) (human, UniProt P31994 46-217)
T1 construct: Bought protein injected over captured antibody in Biacore; also called CD32b
T1 sequence (looked up): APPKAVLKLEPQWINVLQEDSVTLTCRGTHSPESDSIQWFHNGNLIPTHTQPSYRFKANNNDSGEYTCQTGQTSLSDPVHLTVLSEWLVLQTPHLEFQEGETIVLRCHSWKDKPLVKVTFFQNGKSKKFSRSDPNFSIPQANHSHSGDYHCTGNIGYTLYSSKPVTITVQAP
Assay: SPR

First: B1
Second: B2
The “Fold vs WT IgG1” value of the first is lower: 0.0372 fold for the first, 8.79 fold for the second.

Compared with B3, B5 is higher in “Fold vs WT IgG1” value: 3.49 fold for the first, 8.34 fold for the second.

First: B6
Second: B7
The “Fold vs WT IgG1” value of the first is lower: 7.41 fold for the first, 24.4 fold for the second.

First: B8
Second: B9
The “Fold vs WT IgG1” value of the first is lower: 13 fold for the first, 21.7 fold for the second.

Going from B10 to B11, the “Fold vs WT IgG1” value falls from 53.2 fold to 19.8 fold.

Compared with B12, B13 is higher in “Fold vs WT IgG1” value: 1.91 fold for the first, 5.92 fold for the second.

First: B14
Second: B15
The “Fold vs WT IgG1” value of the first is higher: 39.8 fold for the first, 5.56 fold for the second.

Compared with B16, B17 is lower in “Fold vs WT IgG1” value: 124 fold for the first, 51.1 fold for the second.

Going from B18 to B19, the “Fold vs WT IgG1” value falls from 54.1 fold to 27.8 fold.

First: B1
Second: B2
The Kd of the first is 240-fold higher: 39400 nM for the first, 167 nM for the second. The second binds more tightly here.

First: B3
Second: B5
The Kd of the first is 2.4-fold higher: 420 nM for the first, 176 nM for the second. The second binds more tightly here.

Compared with B6, B7 is 3.3-fold lower in Kd: 198 nM for the first, 60.1 nM for the second.

Going from B8 to B9, the Kd falls from 113 nM to 67.7 nM (1.7-fold).

Going from B10 to B11, the Kd rises from 27.6 nM to 74.1 nM (2.7-fold).

First: B12
Second: B13
The Kd of the first is 3.1-fold higher: 767 nM for the first, 248 nM for the second. The second binds more tightly here.

Compared with B14, B15 is 7.2-fold higher in Kd: 36.9 nM for the first, 264 nM for the second. The first binds more tightly here.

First: B16
Second: B17
The Kd of the first is 2.4-fold lower: 11.8 nM for the first, 28.7 nM for the second. The first binds more tightly here.

Compared with B18, B19 is 1.9-fold higher in Kd: 27.1 nM for the first, 52.7 nM for the second. The first binds more tightly here.

B4: no binding.
B20: no binding.

Biological target: T2, cynoFcγRIIb (Macaca fascicularis, UniProt A0A140HDP4)
T2 construct: extracellular region, C-terminal His- and GST-tag; also called cynomolgus monkey FcγRIIb
T2 sequence (receptor extracellular region): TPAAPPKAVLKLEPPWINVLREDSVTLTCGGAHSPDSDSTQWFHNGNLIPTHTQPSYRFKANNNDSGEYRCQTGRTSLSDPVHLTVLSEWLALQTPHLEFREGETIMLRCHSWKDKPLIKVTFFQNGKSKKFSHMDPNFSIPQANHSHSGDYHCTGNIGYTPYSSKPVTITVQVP
Assay: SPR
Method: (§1) Variants were screened for receptor affinity using Biacore™ technology, also referred to as Biacore herein, a surface plasmon resonance (SPR) based technology for studying biomolecular interactions in real time. SPR measurements were performed using a Biacore 3000 instrument (Biacore, Piscataway, N.J.). A protein A/G (Pierce Biotechnology) CM5 biosensor chip (Biacore) was generated using a standard primary amine coupling protocol. All measurements were performed using HBS-EP buffer (10 mM HEPES pH 7.4, 0.15 M NaCl, 3 mM EDTA, 0.005% vol/vol surfactant P20, Biacore). Antibodies at 20 nM or 50 nM in HBS-EP buffer were immobilized on the protein A/G surface and FcγRs were injected. After each cycle, the surface was regenerated by injecting glycine buffer (10 mM, pH 1.5). Data were processed by zeroing time and response before the injection of FcγR and by subtracting appropriate nonspecific signals (response of reference channel and injection of running buffer). Kinetic analyses were performed by global fitting of binding data with a 1:1 Langmuir binding model using BIAevaluation software (Biacore).
(§2) Variant antibodies were tested for their affinity to mouse or cynologous monkey FcγRs using Biacore SPR as described above. Specifically, antibodies were first immobilized on a protein A/G chip to high density, and then followed by injections of the extracellular domain of the mouse or cynologous monkey FcγR of interest. Both association and dissociation phases were tracked in real time using the Biacore technology.

Compared with B1, B2 is higher in “Fold vs WT IgG1 (Kd)” value: 0.25 fold for the first, 3.17 fold for the second.

Going from B3 to B4, the “Fold vs WT IgG1 (Kd)” value falls from 3.58 fold to 2.85 fold.

First: B5
Second: B6
The “Fold vs WT IgG1 (Kd)” value of the first is lower: 3.09 fold for the first, 5.12 fold for the second.

Going from B7 to B8, the “Fold vs WT IgG1 (Kd)” value falls from 22.2 fold to 10.2 fold.

First: B9
Second: B10
The “Fold vs WT IgG1 (Kd)” value of the first is lower: 5.87 fold for the first, 27.6 fold for the second.

Compared with B11, B12 is lower in “Fold vs WT IgG1 (Kd)” value: 6.46 fold for the first, 2.92 fold for the second.

Compared with B13, B14 is higher in “Fold vs WT IgG1 (Kd)” value: 4.63 fold for the first, 7.46 fold for the second.

Compared with B15, B16 is higher in “Fold vs WT IgG1 (Kd)” value: 2.13 fold for the first, 10 fold for the second.

First: B17
Second: B18
The “Fold vs WT IgG1 (Kd)” value of the first is higher: 23.7 fold for the first, 9.1 fold for the second.

First: B19
Second: B20
The “Fold vs WT IgG1 (Kd)” value of the first is higher: 4.55 fold for the first, 0.04 fold for the second.

Biological target: T3, mFcγRIIb (Mus musculus, UniProt P08101)
T3 construct: extracellular region, C-terminal His- and GST-tag; also called mouse FcγRII
T3 sequence (receptor extracellular region, looked up): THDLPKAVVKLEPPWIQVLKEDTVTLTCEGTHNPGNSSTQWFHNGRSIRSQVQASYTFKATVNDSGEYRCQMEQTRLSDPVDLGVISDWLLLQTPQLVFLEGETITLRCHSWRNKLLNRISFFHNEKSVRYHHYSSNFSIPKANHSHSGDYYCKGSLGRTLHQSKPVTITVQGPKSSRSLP
Assay: SPR
Method: as §1, §2

Compared with B1, B2 is higher in “Fold vs WT IgG1 (Kd)” value: 0.085 fold for the first, 6.01 fold for the second.

Compared with B3, B4 is lower in “Fold vs WT IgG1 (Kd)” value: 18.7 fold for the first, 0.549 fold for the second.

First: B5
Second: B6
The “Fold vs WT IgG1 (Kd)” value of the first is higher: 2.09 fold for the first, 1.7 fold for the second.

Compared with B7, B8 is higher in “Fold vs WT IgG1 (Kd)” value: 48.6 fold for the first, 131 fold for the second.

First: B9
Second: B10
The “Fold vs WT IgG1 (Kd)” value of the first is higher: 26.5 fold for the first, 2.59 fold for the second.

Compared with B11, B12 is lower in “Fold vs WT IgG1 (Kd)” value: 46.5 fold for the first, 2.79 fold for the second.

Compared with B13, B14 is lower in “Fold vs WT IgG1 (Kd)” value: 5.92 fold for the first, 4.26 fold for the second.

First: B15
Second: B16
The “Fold vs WT IgG1 (Kd)” value of the first is higher: 11.5 fold for the first, 1 fold for the second.

First: B17
Second: B18
The “Fold vs WT IgG1 (Kd)” value of the first is higher: 47.8 fold for the first, 3.04 fold for the second.

First: B19
Second: B20
The “Fold vs WT IgG1 (Kd)” value of the first is higher: 4.81 fold for the first, 0.208 fold for the second.
